Three variants from IntAct's records for PubMed 16775625 can be followed below.

To fix the notation:
B1: Cyclin-dependent kinase 14 (Homo sapiens), O94921 (parent)
chain: MCDLIEPQPAEKIGKMKKLRRTLSESFSRIALKKDDTTFDEICVTKMSTRNCQGMDSVIKPLDTIPEDKKVRVQRTQSTFDPFEKPANQVKRVHSENNACINFKTSSTGKESPKVRRHSSPSSPTSPKFGKADSYEKLEKLGEGSYATVYKGKSKVNGKLVALKVIRLQEEEGTPFTAIREASLLKGLKHANIVLLHDIIHTKETLTLVFEYVHTDLCQYMDKHPGGLHPDNVKLFLFQLLRGLSYIHQRYILHRDLKPQNLLISDTGELKLADFGLARAKSVPSHTYSNEVVTLWYRPPDVLLGSTEYSTCLDMWGVGCIFVEMIQGVAAFPGMKDIQDQLERIFLVLGTPNEDTWPGVHSLPHFKPERFTLYSSKNLRQAWNKLSYVNHAEDLASKLLQCSPKNRLSAQAALSHEYFSDLPPRLWELTDMSSIFTVPNVRLQPEAGESMRAFGKNNSYGKSLSNSKH
partner: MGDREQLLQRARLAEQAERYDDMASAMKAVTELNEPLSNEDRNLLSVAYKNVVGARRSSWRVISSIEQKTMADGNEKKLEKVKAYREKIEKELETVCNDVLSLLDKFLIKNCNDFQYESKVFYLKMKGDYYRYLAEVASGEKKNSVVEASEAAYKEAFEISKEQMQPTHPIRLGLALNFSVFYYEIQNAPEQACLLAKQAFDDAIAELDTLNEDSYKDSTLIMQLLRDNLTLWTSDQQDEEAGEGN
B2: Cyclin-dependent kinase 14 (Homo sapiens), O94921 (parent)
chain: B1 chain
B3: Cyclin-dependent kinase 14 (Homo sapiens), O94921 (parent)
chain: B1 chain
partner: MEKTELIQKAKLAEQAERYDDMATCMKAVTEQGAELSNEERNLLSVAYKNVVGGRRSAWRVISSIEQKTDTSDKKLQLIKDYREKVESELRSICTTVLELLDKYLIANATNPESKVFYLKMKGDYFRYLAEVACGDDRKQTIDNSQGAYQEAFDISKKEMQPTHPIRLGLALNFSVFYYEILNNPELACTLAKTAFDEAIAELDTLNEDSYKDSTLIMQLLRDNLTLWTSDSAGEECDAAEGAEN

Variants of B1 are the subject of the first assay. The settings on record: with 1433f_human YWHAH.
Take MCDLIEPQPAEKIGKMKKLRRTLSESFSRIALKKDDTTFDEICVTKMSTRNCQGMDSVIKPLDTIPEDKKVRVQRTQSTFDPFEKPANQVKRVHSENNACINFKTSSTGKESPKVRRHASPSSPTSPKFGKADSYEKLEKLGEGSYATVYKGKSKVNGKLVALKVIRLQEEEGTPFTAIREASLLKGLKHANIVLLHDIIHTKETLTLVFEYVHTDLCQYMDKHPGGLHPDNVKLFLFQLLRGLSYIHQRYILHRDLKPQNLLISDTGELKLADFGLARAKSVPSHTYSNEVVTLWYRPPDVLLGSTEYSTCLDMWGVGCIFVEMIQGVAAFPGMKDIQDQLERIFLVLGTPNEDTWPGVHSLPHFKPERFTLYSSKNLRQAWNKLSYVNHAEDLASKLLQCSPKNRLSAQAALSHEYFSDLPPRLWELTDMSSIFTVPNVRLQPEAGESMRAFGKNNSYGKSLSNSKH [S119A]: the “effect of a mutation on the interaction” value is “decreasing interaction”.

Variants of B2 are the subject of the next assay. The settings on record: with 1433b_human YWHAB.
Consider MCDLIEPQPAEKIGKMKKLRRTLSESFSRIALKKDDTTFDEICVTKMSTRNCQGMDSVIKPLDTIPEDKKVRVQRTQSTFDPFEKPANQVKRVHSENNACINFKTSSTGKESPKVRRHASPSSPTSPKFGKADSYEKLEKLGEGSYATVYKGKSKVNGKLVALKVIRLQEEEGTPFTAIREASLLKGLKHANIVLLHDIIHTKETLTLVFEYVHTDLCQYMDKHPGGLHPDNVKLFLFQLLRGLSYIHQRYILHRDLKPQNLLISDTGELKLADFGLARAKSVPSHTYSNEVVTLWYRPPDVLLGSTEYSTCLDMWGVGCIFVEMIQGVAAFPGMKDIQDQLERIFLVLGTPNEDTWPGVHSLPHFKPERFTLYSSKNLRQAWNKLSYVNHAEDLASKLLQCSPKNRLSAQAALSHEYFSDLPPRLWELTDMSSIFTVPNVRLQPEAGESMRAFGKNNSYGKSLSNSKH [S119A], for which the “effect of a mutation on the interaction” value is given as “decreasing interaction”.

Variants of B2 are the subject of a further assay. The settings on record: with 1433e_human YWHAE.
On to MCDLIEPQPAEKIGKMKKLRRTLSESFSRIALKKDDTTFDEICVTKMSTRNCQGMDSVIKPLDTIPEDKKVRVQRTQSTFDPFEKPANQVKRVHSENNACINFKTSSTGKESPKVRRHASPSSPTSPKFGKADSYEKLEKLGEGSYATVYKGKSKVNGKLVALKVIRLQEEEGTPFTAIREASLLKGLKHANIVLLHDIIHTKETLTLVFEYVHTDLCQYMDKHPGGLHPDNVKLFLFQLLRGLSYIHQRYILHRDLKPQNLLISDTGELKLADFGLARAKSVPSHTYSNEVVTLWYRPPDVLLGSTEYSTCLDMWGVGCIFVEMIQGVAAFPGMKDIQDQLERIFLVLGTPNEDTWPGVHSLPHFKPERFTLYSSKNLRQAWNKLSYVNHAEDLASKLLQCSPKNRLSAQAALSHEYFSDLPPRLWELTDMSSIFTVPNVRLQPEAGESMRAFGKNNSYGKSLSNSKH [S119A], for which the “effect of a mutation on the interaction” value is “decreasing interaction”.

In a further assay the parent is B3. The settings on record: with 1433t_human YWHAQ.
Regarding MCDLIEPQPAEKIGKMKKLRRTLSESFSRIALKKDDTTFDEICVTKMSTRNCQGMDSVIKPLDTIPEDKKVRVQRTQSTFDPFEKPANQVKRVHSENNACINFKTSSTGKESPKVRRHASPSSPTSPKFGKADSYEKLEKLGEGSYATVYKGKSKVNGKLVALKVIRLQEEEGTPFTAIREASLLKGLKHANIVLLHDIIHTKETLTLVFEYVHTDLCQYMDKHPGGLHPDNVKLFLFQLLRGLSYIHQRYILHRDLKPQNLLISDTGELKLADFGLARAKSVPSHTYSNEVVTLWYRPPDVLLGSTEYSTCLDMWGVGCIFVEMIQGVAAFPGMKDIQDQLERIFLVLGTPNEDTWPGVHSLPHFKPERFTLYSSKNLRQAWNKLSYVNHAEDLASKLLQCSPKNRLSAQAALSHEYFSDLPPRLWELTDMSSIFTVPNVRLQPEAGESMRAFGKNNSYGKSLSNSKH [S119A], the “effect of a mutation on the interaction” value is given as “decreasing interaction”.
